64 molecules from patent publication US20260193293A1, “PEPTIDES CAPABLE OF INHIBITING PROTEIN-PROTEIN INTERACTIONS AT GABAB1A SUBUNIT AND USES THEREOF” (UNIVERSITY OF COPENHAGEN, priority 2022, published 2026) can be followed below.

Chain of Sushi domains (SD1/2) protein of the GABAB1a (GB1a) subunit, recombinant (Q9Z0U4 29-158): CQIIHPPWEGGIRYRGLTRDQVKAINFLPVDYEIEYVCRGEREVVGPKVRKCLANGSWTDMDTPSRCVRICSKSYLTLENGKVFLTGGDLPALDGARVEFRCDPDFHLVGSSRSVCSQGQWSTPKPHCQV

This assay addresses Sushi domains (SD1/2) protein of the GABAB1a (GB1a) subunit, recombinant. Briefly: FP competition.
For orientation: Ki means a dissociation constant, usually derived from enzyme kinetics or from competition with a known ligand. Consider Ac-EEDDSDVWWGGADTDYADGGEDK-NH2, for which the inhibitory constant (Ki) was 392 nM. Turning to Ac-YPWAIVWGPTVSREDG-NH2, the inhibition constant Ki was 433 nM. As to Ac-TTETEFIAWGPTGDED-NH2, the Ki came out at 32 nM.

Regarding Ac-FIAWGPTGDED-NH2, the inhibition constant Ki was found to be 118 nM. On to Ac-EEDDSDVWWGG-NH2, for which the inhibition constant (Ki) was found to be 1750 nM. In the case of Ac-TETEFIAWGPTGDE-NH2, the Ki is 69 nM.

As for Ac-EEDDSDVWWGGADTDYADG-NH2, the inhibition constant Ki was 343 nM.

Take Ac-EEDDSDVWWGGADTDYA-NH2: the Ki is 299 nM. Ac-EEDDSDVWWGGADT-NH2: the inhibitory constant (Ki) amounted to 585 nM.

In the case of Ac-TETEFIAWGPTGDEDAL-NH2, the Ki turned out to be 47 nM. Next, Ac-TETEFIAW-NH2: 1010 nM; Ac-EEDDSDVWW-NH2: 1790 nM; Ac-TETEFIAWGPTG-NH2: 248 nM. On to Ac-PWAIVWGPTVSREDGGD-NH2, for which the Ki was determined as 716 nM. As to Ac-IVWGPTVSREDG-NH2, the Ki is 15700 nM.

As to Ac-EADSDVWWGGADTD-NH2, the Ki was 1240 nM. Next, Ac-DSADAEEDDSDVWWGGADTDYAD-NH2: 513 nM; Ac-SADAEEDDSDVWWGGADTDYAD-NH2: 284 nM; Ac-DSDVWWGGADTDYAD-NH2: 1500 nM. As to Ac-EEDDSDVWWG-NH2, the Ki turned out to be 12800 nM.

In the case of Ac-PWAIVW-NH2, the inhibitory constant (Ki) was 706 nM. Next, Ac-TEFIAWGPTGDED-NH2: 102 nM; Ac-PWAIVWGP-NH2: 597 nM; Ac-PWAIVWGPTVSR-NH2: 433 nM. As to Ac-EFIAWGPTGDED-NH2, the inhibition constant (Ki) worked out at 112 nM. Regarding Ac-EDASDVWWGGADTD-NH2, the Ki was determined as 1830 nM. Take Ac-PWAIVWGPTV-NH2: the Ki was determined as 561 nM. With Ac-AIVWGPTVSREDG-NH2, the inhibitory constant (Ki) was determined as 5550 nM.

Regarding Ac-TETEFIAWG-NH2, the Ki was 2470 nM. On to Ac-PWAIVWGPTVSREDGGDPN-NH2, for which the Ki was 579 nM.

As for Ac-EEDDSDVWWGGADTDY-NH2, the Ki came to 301 nM. With Ac-VWGPTVSREDG-NH2, the Ki amounted to 1740 nM. Regarding Ac-TETEFIAWGP-NH2, the inhibitory constant (Ki) is 574 nM.

In the case of Ac-SSQYPWAIVWGPTVSREDG-NH2, the inhibition constant (Ki) came out at 29900 nM. On to Ac-EDDSDVWWGGADTDYAD-NH2, for which the Ki came out at 281 nM. With Ac-DAEEDDSDVWWGGADTDYAD-NH2, the inhibition constant Ki was found to be 247 nM. With Ac-EEDDSDVWWGGAD-NH2, the Ki was 534 nM. As for Ac-VWWGGADTDYAD-NH2, the figure is 60800 nM; as for Ac-SDVWWGGADTDYAD-NH2, 2950 nM. Ac-EEDDSDVWWGGADTDYADGGED-NH2: the Ki was 356 nM. Regarding Ac-PWAIVWGPTVSREDGGDPNS-NH2, the inhibitory constant (Ki) came out at 706 nM. Regarding Ac-PWAIVWGPTVSREDGGDP-NH2, the Ki is 597 nM. For the molecule Ac-EDDADVWWGGADTD-NH2, the Ki worked out at 660 nM. Ac-QYPWAIVWGPTVSREDG-NH2: the inhibitory constant (Ki) was found to be 650 nM. For Ac-EEDDSDVWWGGA-NH2, the Ki was found to be 1020 nM. Next, Ac-EEDDSDVWWGGADTDYADGG-NH2: 341 nM; Ac-DDSDVWWGGADTDYAD-NH2: 517 nM. Next, Ac-TETEFIAWGPTGDEDA-NH2: 36 nM; Ac-EDDSAVWWGGADTD-NH2: 3080 nM; Ac-ADDSDVWWGGADTD-NH2: 803 nM. As to Ac-TETEFIAWGPT-NH2, the Ki is 236 nM. Ac-PWAIVWGPT-NH2: the inhibition constant Ki worked out at 716 nM. With Ac-PWAIVWG-NH2, the Ki is 579 nM. Next, Ac-EEDDSDVWWGGADTD-NH2: 341 nM; Ac-PWAIVWGPTVSREDGG-NH2: 561 nM; Ac-IAWGPTGDED-NH2: 38000 nM. Next, Ac-TETEFIAWGPTGD-NH2: 97 nM; Ac-DVWWGGADTDYAD-NH2: 6100 nM. As to Ac-EEDDSDVWWGGADTDYADGGE-NH2, the Ki worked out at 351 nM. Ac-SQYPWAIVWGPTVSREDG-NH2: the Ki amounted to 762 nM.

With Ac-PTTETEFIAWGPTGDED-NH2, the Ki worked out at 30 nM.

Ac-PWAIVWGPTVSRE-NH2: the Ki was 650 nM. For the molecule Ac-ADAEEDDSDVWWGGADTDYAD-NH2, the Ki is 500 nM. Turning to Ac-PWAIVWGPTVS-NH2, the Ki is 463 nM.
